The supplement of paper PMC7877785
± gives the uncertainty stated by the source.

Experiment: self-splicing fitness, log relative to wild type (ln ratio); higher = more splicing; Tetrahymena group I intron in knt gene, E. coli kanamycin selection, DiMSum; sequences stand for … in CUCUCU…GGAGGGAAAAGUUAUCAGGCAUGCACCUGGUAGCUAGUCUUUAAACCAAUAGAUUGCAUCGGUUUAAAAGGCAAGACCGUCAAAUUGCGGGAAAGGGGUCAACAGCCGUUCAGUACCAAGUCUCAGGGGAAACUUUGAGAUGGCCUUGCAAAGGGUAUGGUAAUAAGCUGACGGACAUGGUCCUAACCACGCAGCCAAGUCCUAAGUCAACAGAUCUUCUGUUGAUAUGGAUGCAGUUCACAGACUAAAUGUCGGUCGGGGAAGAUGUAUUCUUCUCAUAAGAUAUAGUCGGACCUCUCCUUAAUGGGAGCUAGCGGAUGAAGUGAUGCAACACUGGAGCCGCUGGGAACUAAUUUGUAUGCGAAAGUAUAUUGAUUAGUUUUGGAGUACUCGUGGUCG
Summary of the method: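 A randomised library covering all eight P1ex-region intron nucleotides was built with the intron in the knt kanamycin-resistance gene on pET-22b(+) and held in E. coli BL21(DE3). Cells were grown overnight at 37°C or 30°C on LB agar, with or without 25 μg/mL kanamycin, plus 100 μg/mL carbenicillin, 50 μM IPTG and 0.2% rhamnose, and pooled colonies were amplicon-sequenced on an Illumina HiSeq 2500. DiMSum fitness is the error-weighted combination of wild-type-normalised replicate fold changes, kanamycin versus none.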

Sequence	self-splicing fitness (ln) (30 °C)	self-splicing fitness (ln) (37 °C)
AAGUAGCAAUAUUACGCUUU	-3.18 ± 0.24	-3.19 ± 0.47
UAUUAGCAAUAUUACGCAUC	-3.67 ± 0.31	-1.7 ± 0.3
ACUUAGCAAUAUUACGCGGG	-3.38 ± 0.27	-2.75 ± 0.2
AUGAAGCAAUAUUACGAGAA	-3.53 ± 0.27	-1.07 ± 0.16
GAUGAGCAAUAUUACGACCA	-3.85 ± 0.35	-3.8 ± 0.39
GGUCAGCAAUAUUACGCCUA	-0.826 ± 0.12	-0.243 ± 0.14
UGGGAGCAAUAUUACGUGUU	-3.63 ± 0.23	-2.91 ± 0.34
ACGGAGCAAUAUUACGCUAG	-2.63 ± 0.25	-2.16 ± 0.34
GCAAAGCAAUAUUACGGGCC	-2.74 ± 0.13	-2.03 ± 0.21
GGUCAGCAAUAUUACGCAAG	-1.92 ± 0.17	-0.453 ± 0.16
AGCCAGCAAUAUUACGAGAA	-2.99 ± 0.36	-1.42 ± 0.3
UUUUAGCAAUAUUACGUGCA	-2.12 ± 0.17	-1.11 ± 0.18
CCUCAGCAAUAUUACGACUG	-3.09 ± 0.23	-2.76 ± 0.21
UCCUAGCAAUAUUACGCGUG	-4.1 ± 0.15	-2.75 ± 0.12
AGAUAGCAAUAUUACGCCCG	-0.427 ± 0.23	-0.478 ± 0.24
CUUUAGCAAUAUUACGAGGG	-3.57 ± 0.21	-2.26 ± 0.27
UAUGAGCAAUAUUACGACAU	-3.523 ± 0.029	-2.56 ± 0.042
GCCCAGCAAUAUUACGAUAG	-2.76 ± 0.14	-3.33 ± 0.2
UUAGAGCAAUAUUACGUCAC	–	-2.76 ± 0.48
AGCAAGCAAUAUUACGCCGG	-3.71 ± 0.37	-1.81 ± 0.24

Sequence	self-splicing fitness (ln) (30 °C)	self-splicing fitness (ln) (37 °C)
CAGUAGCAAUAUUACGCCCG	0.504 ± 0.12	-0.351 ± 0.15
CGGUAGCAAUAUUACGAAGA	-2.99 ± 0.42	-2.32 ± 0.29
GCUGAGCAAUAUUACGUGCG	-1.62 ± 0.099	-1.01 ± 0.14
CAUAAGCAAUAUUACGAAGU	-3.15 ± 0.17	-2.75 ± 0.29
UCCUAGCAAUAUUACGGUCA	-0.978 ± 0.079	-0.106 ± 0.089
UGUCAGCAAUAUUACGUUUC	–	-2.07 ± 0.28
UUGUAGCAAUAUUACGAAAG	-2.43 ± 0.32	-2.69 ± 0.34
AUACAGCAAUAUUACGCGGG	-3.46 ± 0.15	-1.75 ± 0.11
AAUUAGCAAUAUUACGAAGC	-1.94 ± 0.27	–
CAGCAGCAAUAUUACGAUUC	-3.27 ± 0.25	-1.78 ± 0.16
GAUGAGCAAUAUUACGGGAC	–	-3.23 ± 0.4
CUAGAGCAAUAUUACGUGUU	-3.3 ± 0.26	-2.8 ± 0.3
GGUCAGCAAUAUUACGUAUU	-0.159 ± 0.055	0.511 ± 0.071
UCCGAGCAAUAUUACGCCUA	-2.13 ± 0.2	-2.6 ± 0.36
CGGUAGCAAUAUUACGGCCG	-3.76 ± 0.24	-0.985 ± 0.2
GAGGAGCAAUAUUACGUUUG	-3.33 ± 0.16	-1.92 ± 0.13
UCUUAGCAAUAUUACGCGCG	-3.05 ± 0.25	-1.76 ± 0.17
ACAUAGCAAUAUUACGAAAC	-3.95 ± 0.26	-2.45 ± 0.33
UUAUAGCAAUAUUACGUAUG	-1.03 ± 0.12	-0.187 ± 0.15
